Source: article PMC5551644
Where two headings read alike, the source gives them in different places.

Assays:
[1] = molecular target: Transforming growth factor β2 (TGF-β2), recombinant human (human) (UniProt P61812); assay: SPR
[2] = molecular target: Transforming growth factor β2 (TGF-β2), recombinant human (human) (UniProt P61812); assay: SPR; remark: listed apart in the source
[3] = molecular target: TGF-β2TM, variant of TGF-β2 bearing K25R, I92V, and K94R substitutions (human); assay: SPR
[4] = molecular target: TGF-β2TM/TβRII binary complex (UniProt P37173); assay: SEC
[5] = molecular target: TGF-β2TM/TβRII binary complex (UniProt P37173); assay: SEC-MALS
[6] = molecular target: TGF-β2TM/TβRII binary complex (UniProt P37173); assay: ITC
[7] = molecular target: TGF-β2TM, variant of TGF-β2 bearing K25R, I92V, and K94R substitutions (human); assay: SPR; remark: listed apart in the source
[8] = molecular target: Transforming growth factor β2 (TGF-β2), recombinant human (human) (UniProt P61812); assay: ITC

Substance: C-terminal portion of the betaglycan zona pellucida domain (BG_(ZP-C)) (from UniProt P26342 589-761) (domain or fragment)
- Kd [1]: 450 nM
- apparent KD with 2 μM TβRII [2]: 600 nM
- Kd [3]: 325 nM

Substance: betaglycan orphan domain (BGO), produced in E. coli (from UniProt P26342 24-384) (domain or fragment)
- Kd [3]: 98 nM
- stoichiometry N (BGO per TGF-β2TM homodimer) [4]: 1
- stoichiometry N (BGO per TGF-β2TM homodimer) [5]: 1

Substance: betaglycan orphan domain (BGO), produced in HEK-293 expi cells (from UniProt P26342 24-383) (domain or fragment)
- Kd [6]: 82 nM
- dH [6]: -38.8 kJ mol^–1
- stoichiometry N [6]: 1.07 sites

Substance: betaglycan zona pellucida domain (BGZP) (from UniProt P26342 450-761) (domain or fragment)
- Kd [1]: 450 nM
- Kd [7]: 290 nM
- apparent KD with 4 μM TβRII [2]: 600 nM
- Kd [3]: 287 nM

Substance: full-length betaglycan extracellular domain (BG_(O-ZP)) (from UniProt P26342 24-761) (domain or fragment)
- Kd [8]: 109 nM
- dH [8]: -52.6 kJ mol^–1
- stoichiometry N [8]: 1.04 sites
- Kd [3]: 5.5 nM
- stoichiometry N (BG (O-ZP) per TGF-β2TM homodimer) [4]: 1
- stoichiometry N (BG (O-ZP) per TGF-β2TM homodimer) [5]: 1
